This is an account of results in article PMC12511625.

Test [1] has as its target S. venezuelae ParB (wild type, recombinant, cleaved from GST) (S. venezuelae). Particulars: scale: μmol of phosphate released by 1 μmol of ParB in one hour.
The target of test [2] is S. venezuelae ParB_(SMC-) variant (TDR 132-134 to AAT, D164R) (S. venezuelae). Particulars: scale: μmol of phosphate released by 1 μmol of ParB in one hour.

Consider “FLAG-SMC of S. venezuelae (natural protein)”, for which the CTP hydrolysis (phosphate released) by ParB (2 μM) with parS-containing plasmid DNA and FLAG-SMC (0.02 μM, 1:100 molar ratio); without FLAG-SMC 65.1 +/− 2.9 in test [1] was 35.2. For the same substance, the CTP hydrolysis (phosphate released) by ParB (SMC-) (2 μM) with parS-containing plasmid DNA and FLAG-SMC (1:100 molar ratio); without FLAG-SMC 46.7 +/− 3.9; said to be similar with and without SMC in test [2] worked out at 39.
